Columns and labels:
[1] = target: T1, human PD-L1/His fusion protein (human, UniProt Q9NZQ7 19-239); assay: BLI off-rate; test group 4 (reference itself)
Method: (§1) Briefly, antibodies were characterized for affinities and binding kinetics by Octet®RED96 biolayer interferometry (Pall ForteBio LLC). Antibodies were captured by Anti-hIgG Fc Capture (AHC) Biosensors (Pall) at a concentration of 100 nM for 30 seconds. Sensors were then dipped into running buffer (1×pH 7.2 PBS, 0.05% Tween 20, 0.1% BSA) for 60 seconds to check baseline. Binding was measured by dipping sensors into a single concentration of recombinant human PD-L1/His fusion protein (Novoprotein). Dissociation was followed by dipping sensors into running buffer for 1200 seconds. The association and dissociation curves were fitted to a 1:1 Langmuir binding model using ForteBio Data Analysis software (Pall). […] The off-rate ratio serves as a data normalization. Accordingly, in each test group, the off-rate ratios of the humanized antibodies can be compared with that of the chimeric antibody, and the off-rate ratios of each of the humanized antibodies can be compared to one another within all test groups.

[2] = target: T1, human PD-L1/His fusion protein; assay: BLI Octet RED96, antibody on AHC sensor, single conc. PD-L1/His; test group 2
Method: as §1

[3] = target: T2, human PD-L1 on the cell surface (CHO-K1 cells stably expressing human PD-L1) (human, UniProt Q9NZQ7 19-290); assay: FACS on CHO-K1/hPD-L1 cells
T2 construct: whole, on cells; Also used here for PD-L1 on the monocyte-derived dendritic cells of the MLR assay (functional rows); also called CHO-K1/PD-L1; CHOK1-PD-L1
Method: The ability of the purified antibodies to bind to cell membrane human PD-L1 was determined by FACS analysis. CHO-K1 cells stably expressing human PD-L1 (CHO-K1/hPD-L1 cells) were resuspended in PBS containing 2% FBS (FACS buffer) and seeded at 1×10⁵ cells/well into 96-well round-bottomed plates (Corning; Cat. No. 3799). […] The assay plate was then read on a flow cytometer. The data were processed by GraphPad software, and EC50 values were calculated. The EC50 for binding activity according to this FACS analysis is the concentration at which of an antibody induces a response halfway between the baseline and maximum and reflects the binding ability of the antibody.

[4] = target: T3, cynomolgus (cyno) PD-L1/His fusion protein (cynomolgus, UniProt G7PSE7 19-239); assay: BLI Octet RED96, cyno PD-L1
T3 construct: also called cynomolgus PD-L1; not shown: His tag

[5] = target: human PD-L1/Fc Fusion Protein (human); assay: RBA ELISA: coated PD-L1/Fc, competitor biotinylated human PD-1
Method: ELISA plates were coated with 100 μl of 1 μg/ml of human PD-L1/Fc in PBS and incubated overnight at 4° C. Plates were washed four times in washing buffer (PBS containing 0.05% Tween 20) and blocked for 1 hour at 37° C. with 200 μl per well of blocking buffer (1% BSA in PBS containing 0.05% Tween 20). […] A human IgG was included as negative control. The signal was developed by adding streptavidin-HRP (Cat. No. S2468, Sigma) (100 μl/well at 1:5000 dilution) and incubating for 40 minutes at 37° C., followed by washing four times in washing buffer. Then, 100 μl of TMB solution were added per well. Following color development, the reaction was stopped with 1 N HCl, and absorbance at 450 nm was measured. The data were processed by GraphPad software, and IC50 values were calculated. […] The signal reduction induced by antibody samples was normalized to inhibition percentage, where the negative control was 0% inhibition, and the absolute value of signal reduction of each antibody divided by the signal of the negative control equals the percent inhibition by the antibody.

[6] = target: T3, cynomolgus (cyno) PD-L1/His fusion …; assay: ELISA, coated cyno PD-L1 protein
Method: (§2) The ability of an antibody to bind human or cynomolgus (cyno) PD-L1 (binding activity) was determined by ELISA. ELISA plates were incubated overnight at 4° C. with 50 μl of the human or cyno PD-L1 protein described above diluted in PBS buffer, pH 7.4, at 1 μg/ml. Plates were washed four times in washing buffer (PBS containing 0.05% Tween 20) and blocked for 1 hour at 37° C. with 200 μl per well of blocking buffer (1% BSA in PBS containing 0.05% Tween 20). After blocking buffer was removed, diluted purified antibodies (200 nM and 1:5 serial dilutions to provide 7 concentrations of each antibody) were added to the wells at 100 μl per well and incubated at 37° C. for 1 hour. The wells were washed four times with washing buffer, and anti-human IgG (Fc-specific) HRP-conjugated antibody (Sigma), diluted 1:10,000, was added to the wells at 100 μl per well. The plates were incubated for 1 hour at 37° C. and washed four times in washing buffer. 100 μl of tetramethylbenzidine (TMB) chromogenic solution were added per well. Following color development, the reaction was stopped with 1 N HCl, and absorbance at 450 nm was measured on a VARIOSKAN™ LUX multimode microplate reader (ThermoFisher Scientific, Vataa, Finland). The data were processed by GraphPad software, and EC50 values were calculated. The EC50 for binding activity according to this ELSA is the concentration at which an antibody induces a response halfway between the baseline and maximum and indicates the binding ability of the antibody.

[7] = target: T1, human PD-L1/His fusion protein; assay: BLI Octet RED96, antibody on AHC sensor, PD-L1/His in solution
Method: Binding of antibodies to PD-L1 was also assessed using biolayer interferometry (BLI) using an Octet® RED96 sensor device (Pall ForteBio LLC). Antibodies were captured by anti-hIgG Fc capture (AHC) Biosensors (Pall) at a concentration of 100 nM for 30 seconds. Sensors were then dipped into running buffer (1×pH7.2 PBS, 0.05% Tween 20, 0.1% BSA) for 60 seconds to check the baseline. Binding was measured by dipping sensors into a series of diluted concentrations of recombinant human PD-L1/His fusion protein. Dissociation was followed by dipping sensors into running buffer for 1200 seconds. The association and dissociation curves were fitted to a 1:1 Langmuir binding model using ForteBio Data Analysis software (Pall). The equilibrium dissociation constant KD (molarity) of the reaction between antibodies and related target proteins was then calculated from the kinetic rate constants using the formula KD=koff/kon.

[8] = target: T1, human PD-L1/His fusion protein; assay: BLI Octet RED96, antibody on AHC sensor, single conc. PD-L1/His; test group 3
Method: as §1

[9] = target: T1, human PD-L1/His fusion protein; assay: BLI off-rate; test group 3 (reference itself)
Method: as §1

[10] = target: T1, human PD-L1/His fusion protein; assay: BLI Octet RED96, antibody on AHC sensor, single conc. PD-L1/His; test group 1
Method: as §1

[11] = target: T1, human PD-L1/His fusion protein; assay: BLI off-rate; test group 2 (reference itself)
Method: as §1

[12] = target: T1, human PD-L1/His fusion protein; assay: BLI Octet RED96, antibody on AHC sensor, single conc. PD-L1/His; test group 4
Method: as §1

[13] = target: T1, human PD-L1/His fusion protein; assay: ELISA, coated human PD-L1 protein, anti-human Fc detection
Method: as §2

[14] = target: T1, human PD-L1/His fusion protein; assay: BLI off-rate; test group 1 (reference itself)
Method: as §1

Chain of human PD-L1/Fc Fusion Protein (human) (chain, as listed by the source limits assumed): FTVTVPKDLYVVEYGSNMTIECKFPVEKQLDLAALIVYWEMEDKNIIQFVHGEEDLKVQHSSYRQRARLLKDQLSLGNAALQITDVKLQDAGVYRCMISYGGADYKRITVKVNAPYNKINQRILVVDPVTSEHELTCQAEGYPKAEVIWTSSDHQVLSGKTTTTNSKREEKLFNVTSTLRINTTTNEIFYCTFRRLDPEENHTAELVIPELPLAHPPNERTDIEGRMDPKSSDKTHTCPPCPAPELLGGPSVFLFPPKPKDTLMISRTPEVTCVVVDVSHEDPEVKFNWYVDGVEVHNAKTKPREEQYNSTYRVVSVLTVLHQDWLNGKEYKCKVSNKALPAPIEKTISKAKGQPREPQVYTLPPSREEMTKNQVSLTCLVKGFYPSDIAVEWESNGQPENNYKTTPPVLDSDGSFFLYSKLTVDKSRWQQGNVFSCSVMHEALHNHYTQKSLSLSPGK
T1 sequence (Q9NZQ7 19-239 limits assumed): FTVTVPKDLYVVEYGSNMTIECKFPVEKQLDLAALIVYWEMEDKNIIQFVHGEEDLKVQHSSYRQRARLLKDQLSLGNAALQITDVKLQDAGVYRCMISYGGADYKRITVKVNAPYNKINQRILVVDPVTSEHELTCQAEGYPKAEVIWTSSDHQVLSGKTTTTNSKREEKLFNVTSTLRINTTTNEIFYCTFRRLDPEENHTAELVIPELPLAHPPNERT
T3 sequence (G7PSE7 entry or part of it): as the sequence (Q9NZQ7 19-239 limits assumed) above, with A33T, A34S, S62N, R68Q, Q82R, F173L, T185A, T192I, H215L counted along it
T2 sequence (Q9NZQ7 19-290): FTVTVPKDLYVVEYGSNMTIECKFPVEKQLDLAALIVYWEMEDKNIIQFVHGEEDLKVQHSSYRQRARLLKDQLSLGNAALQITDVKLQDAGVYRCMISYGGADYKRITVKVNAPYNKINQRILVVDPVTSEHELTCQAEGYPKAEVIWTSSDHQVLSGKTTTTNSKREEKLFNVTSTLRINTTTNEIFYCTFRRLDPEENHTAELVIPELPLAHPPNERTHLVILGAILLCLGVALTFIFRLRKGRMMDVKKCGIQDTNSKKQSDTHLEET

Off-Rate Ratio to that of EM0005-90c [1] | koff [2] | EC50 [3] | Kd [4] | IC50 [5] | Inhibition (percent) [5] | EC50 [6] | Kd [7] | koff [8] | Off-Rate Ratio to that of EM0005-90c [9] | koff [10] | Off-Rate Ratio to that of EM0005-90c [11] | koff [12] | EC50 [13] | Off-Rate Ratio to that of EM0005-90c [14] | Off-Rate Ratio to that of EM0005-87c [1] | Off-Rate Ratio to that of EM0005-87c [9] | Off-Rate Ratio to that of EM0005-87c [11] | Off-Rate Ratio to that of EM0005-87c [14] | Binder
100% | 0.000342 s⁻¹ | 0.21 nM | 0.837 nM | 1.05 nM | 94.4% | 0.12 nM | 0.681 nM | 0.000382 s⁻¹ | 100% | 0.000253 s⁻¹ | 100% | 0.00225 s⁻¹ | 0.15 nM | 100% | – | – | – | – | EM0005-mAb90c (antibody, human IgG1, kappa, V domains shown, Chimeric full-length IgG1; also called EM0005-90c) VH: QVQLKQSGAELVRPGSSVKMSCKTSGYTFTSHSINWVKQRPGQGLEWIGYMYIGNGYTEYNEKFKGKATLTSDTSSTTAYMQLSSLTSEDSAIYFCAKITPVVAPYVMDYWGQGTSVTVSS VL: DIVMTQTHKFMSTSVGDRVSITCKASQDVGTAVAWYQQKPGQSPKLLIYWASTRHTGVPDRFTGSGSGTDFTLTISNVQSEDLADYFCQQYSSYPYTFGGGTKLELKR
– | 0.00104 s⁻¹ | 0.42 nM | 0.493 nM | 0.94 nM | 93.9% | 0.06 nM | 0.981 nM | 0.00135 s⁻¹ | – | 0.00147 s⁻¹ | – | 0.000897 s⁻¹ | 0.08 nM | – | 100% | 100% | 100% | 100% | EM0005-mAb87c (antibody, human IgG1, kappa, V domains shown, Chimeric full-length IgG1; also called EM0005-87c) VH: EVQLQQSGPELVKPGASVKISCKASGYSFTDYYINWVKQSPEKSLEWIGETIPNTGGTTYNQKFKAKATLTVDKSSSTAYMQLKSLTSEDSAVYYCARYQSGSPFAYWGQGTPVTVSS VL: DIVMTQSQKFMSTTVGDRVSITCKASQNVGTAVAWYQQKPGQSPKLLIYSASNRYTGVPDRFTGSGSGTDFTLTISNMQSEDLADYFCQQHYSTPYTFGGGTKLEIKR

Source: US20230242675A1 (SHANGHAI EPIMAB BIOTHERAPEUTICS, published 2023)
